The target of the test is T1, SARS-CoV-2 S1 subunit-Fc (Fc-tagged S1 protein, The Native Antigen Company) (SARS-CoV-2, UniProt P0DTC2 14-674).
T1 construct: domain: S1 subunit
The experiment in a line: BLI (BLItz), His-tagged CoVHH1 on Ni-NTA sensor, S1-Fc 0-693.1 nM in solution, global fitting.

B1: His-tagged CoVHH1 (VHH)
VHH: AEVQLVESGGGQVETGGSLRLSCQASGSTFSDYVMAWFRQRPGKEREFVATISRNGGTTTYGSSVKGRFTISRDNAKSTVYLQMNSLKPEDTAVYYCYAVGGDGDSWGQGTQVTVSSEPKTPKPQSHHHHHH
notes: also called CoVHH1-His; His-tagged VHH
In the case of B1, the Kd stood at 7.13 nM, the off-rate constant (koff) came to 0.000114 s⁻¹ and the on-rate constant (kon) turned out to be 16000 M⁻¹ s⁻¹.

Broadly, the Kd is the concentration at which binding is half-saturated. A higher Kd goes with lower affinity. The koff is a measure of how fast the partners let go of each other. A higher koff goes with fast dissociation. The kon is the second-order rate constant of association.

Source of the values: patent WO2021221136A1 (dated 2021).
